In publication PMC7055227, “Complete Profiling of Methyl-CpG-Binding Domains for Combinations of Cytosine Modifications at CpG Dinucleotides Reveals Differential Read-out in Normal and Rett-Associated States”:

B1: probe p03 (dsDNA)
DNA 1: AAAAAAAAAAACGAAAAAAAAAAA
DNA 2: TTTTTTTTTTTCGTTTTTTTTTTT
modifications: cytosine states of p03 not given in the material (perhaps C/C)
B2: p11 fC/hmC duplex (dsDNA)
DNA 1: AAAAAAAAAAACGAAAAAAAAAAA
DNA 2: TTTTTTTTTTTCGTTTTTTTTTTT
modifications: 5-formylcytosine at C12 of strand 1; 5-hydroxymethylcytosine at C12 of strand 2 (o3116/o3112)
B3: p08 fC/mC duplex (dsDNA)
DNA 1: AAAAAAAAAAACGAAAAAAAAAAA
DNA 2: TTTTTTTTTTTCGTTTTTTTTTTT
modifications: 5-formylcytosine at C12 of strand 1; 5-methylcytosine at C12 of strand 2 (o3116/o2909)
B4: p10 hmC/hmC duplex (dsDNA)
DNA 1: AAAAAAAAAAACGAAAAAAAAAAA
DNA 2: TTTTTTTTTTTCGTTTTTTTTTTT
modifications: 5-hydroxymethylcytosine at C12 of strand 1 and C12 of strand 2 (o3115/o3112)
B5: mC/fC duplex (dsDNA)
DNA 1: AAAAAAAAAAACGAAAAAAAAAAA
DNA 2: TTTTTTTTTTTCGTTTTTTTTTTT
modifications: 5-methylcytosine at C12 of one strand, 5-formylcytosine at C12 of the other; strand assignment not certain
B6: hmC/fC duplex (dsDNA)
DNA 1: AAAAAAAAAAACGAAAAAAAAAAA
DNA 2: TTTTTTTTTTTCGTTTTTTTTTTT
modifications: 5-hydroxymethylcytosine at C12 of one strand, 5-formylcytosine at C12 of the other; strand assignment not certain
B7: mC/hmC duplex (dsDNA)
DNA 1: AAAAAAAAAAACGAAAAAAAAAAA
DNA 2: TTTTTTTTTTTCGTTTTTTTTTTT
modifications: 5-methylcytosine at C12 of one strand, 5-hydroxymethylcytosine at C12 of the other; strand assignment not certain
B8: p06 mC/mC duplex (dsDNA)
DNA 1: AAAAAAAAAAACGAAAAAAAAAAA
DNA 2: TTTTTTTTTTTCGTTTTTTTTTTT
modifications: 5-methylcytosine at C12 of strand 1 and C12 of strand 2 (o2967/o2909)
B9: p03 hmC/C duplex (dsDNA)
DNA 1: AAAAAAAAAAACGAAAAAAAAAAA
DNA 2: TTTTTTTTTTTCGTTTTTTTTTTT
modifications: 5-hydroxymethylcytosine at C12 of strand 1; strand 2 unmodified (o3115/o2904)
B10: p07 hmC/mC duplex (dsDNA)
DNA 1: AAAAAAAAAAACGAAAAAAAAAAA
DNA 2: TTTTTTTTTTTCGTTTTTTTTTTT
modifications: 5-hydroxymethylcytosine at C12 of strand 1; 5-methylcytosine at C12 of strand 2 (o3115/o2909)

Columns and labels:
hMeCP2 MBD [1] = target: hMeCP2 MBD (Homo sapiens, UniProt P51608); assay: EMSA; poly(dA)-poly(dT) 50 ng/uL; EMSA: 20 mM HEPES pH 7.3, 30 mM KCl, 1 mM EDTA, 10 mM (NH4)2SO4, 1 mM DTT, 0.2% Tween 20, 50 ng/uL poly(dA)-poly(dT), protein diluted in dialysis buffer with 0.1 mg/mL BSA; 2 nM duplex; 20 min at room temperature; gel at 4 C; conditions: protein: recombinant; tags: N-term SpA(Z)-Factor Xa-TEV, C-term 8xHis; label: 5' 6-FAM on strand 1; blunt
hMeCP2 MBD [2] = target: hMeCP2 MBD (Homo sapiens, UniProt P51608 90-181); assay: EMSA; 20 mM HEPES, 30 mM KCl, 1 mM EDTA, 10 mM (NH4)2SO4, pH 7.3, 1 mM DTT, 0.2% Tween 20, 50 ng/uL poly(dA)-poly(dT) trap, 2 nM duplex, protein in dialysis buffer with BSA; 20 min room temperature; gel at 4 C; conditions: protein: recombinant, label: 5' 6-FAM on strand 1
hMBD4 MBD [3] = target: T1, hMBD4 MBD (Homo sapiens, UniProt O95243); assay: EMSA; higher than mC/hmC; EMSA: 20 mM HEPES pH 7.3, 30 mM KCl, 1 mM EDTA, 10 mM (NH4)2SO4, 1 mM DTT, 0.2% Tween 20, 50 ng/uL poly(dA)-poly(dT), protein diluted in dialysis buffer with 0.1 mg/mL BSA; 2 nM duplex; 20 min at room temperature; gel at 4 C; conditions: protein: recombinant; tags: N-term SpA(Z)-Factor Xa-TEV, C-term 8xHis; label: 5' 6-FAM on strand 1; blunt
hMBD4 MBD [4] = target: T1, hMBD4 MBD; assay: EMSA; new preferred combination; EMSA: 20 mM HEPES pH 7.3, 30 mM KCl, 1 mM EDTA, 10 mM (NH4)2SO4, 1 mM DTT, 0.2% Tween 20, 50 ng/uL poly(dA)-poly(dT), protein diluted in dialysis buffer with 0.1 mg/mL BSA; 2 nM duplex; 20 min at room temperature; gel at 4 C; conditions: protein: recombinant; tags: N-term SpA(Z)-Factor Xa-TEV, C-term 8xHis; label: 5' 6-FAM on strand 1; blunt
hMBD4 MBD [5] = target: T1, hMBD4 MBD; assay: EMSA; lower than mC/fC; EMSA: 20 mM HEPES pH 7.3, 30 mM KCl, 1 mM EDTA, 10 mM (NH4)2SO4, 1 mM DTT, 0.2% Tween 20, 50 ng/uL poly(dA)-poly(dT), protein diluted in dialysis buffer with 0.1 mg/mL BSA; 2 nM duplex; 20 min at room temperature; gel at 4 C; conditions: protein: recombinant; tags: N-term SpA(Z)-Factor Xa-TEV, C-term 8xHis; label: 5' 6-FAM on strand 1; blunt

hMeCP2 MBD (Homo sapiens, UniProt P51608 90-181), sequence (P51608 90-181): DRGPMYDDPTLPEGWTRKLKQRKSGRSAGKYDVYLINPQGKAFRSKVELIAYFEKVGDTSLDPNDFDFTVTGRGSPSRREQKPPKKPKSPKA
T1 sequence (O95243 76-167): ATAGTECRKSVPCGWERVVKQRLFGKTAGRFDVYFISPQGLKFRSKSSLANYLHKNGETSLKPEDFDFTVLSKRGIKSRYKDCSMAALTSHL
hMeCP2 MBD (Homo sapiens, UniProt P51608), sequence (P51608 90-181): as the sequence (P51608 90-181) above

Binder	Kd (hMeCP2 MBD [2]; blunt) [nM]	further results
B1	–	Kd (hMeCP2 MBD [1]): 1080 ± 101 nM
B2	541 ± 62.7	–
B3	197 ± 24	–
B4	–	Kd (hMeCP2 MBD [2]): 967 ± 89.6 nM
B5	–	binding result (hMBD4 MBD [3]): binds
B6	–	binding result (hMBD4 MBD [4]): binds
B7	–	binding result (hMBD4 MBD [5]): binds
B8	26.6 ± 3.85	–
B9	1080 ± 101	–
B10	224 ± 24.6	–
